Assay results from the supplement of paper PMC9876800.

Test system: peptide library, one residue held at a place counted from the S/T acceptor
Assay: relative phosphorylation of the sub-library (ratio to the mean residue at this position); higher = residue favoured
Conditions: human
Summary of the method: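 Purified recombinant kinases were reacted in 384-well plates with biotinylated degenerate peptide sub-libraries, each having one residue fixed at one position around a central Ser/Thr. The reaction mix contained 50 μM peptide plus 50 μM ATP spiked with γ-32P-ATP and ran for 90 min under kinase-specific conditions. Relative sub-library phosphorylation, taken from densitometry of phosphorimaged streptavidin membrane spots, is a ratio to the mean residue at that position.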

Chain of PLK3, construct: Full length (Q9H4B4 whole entry, looked up): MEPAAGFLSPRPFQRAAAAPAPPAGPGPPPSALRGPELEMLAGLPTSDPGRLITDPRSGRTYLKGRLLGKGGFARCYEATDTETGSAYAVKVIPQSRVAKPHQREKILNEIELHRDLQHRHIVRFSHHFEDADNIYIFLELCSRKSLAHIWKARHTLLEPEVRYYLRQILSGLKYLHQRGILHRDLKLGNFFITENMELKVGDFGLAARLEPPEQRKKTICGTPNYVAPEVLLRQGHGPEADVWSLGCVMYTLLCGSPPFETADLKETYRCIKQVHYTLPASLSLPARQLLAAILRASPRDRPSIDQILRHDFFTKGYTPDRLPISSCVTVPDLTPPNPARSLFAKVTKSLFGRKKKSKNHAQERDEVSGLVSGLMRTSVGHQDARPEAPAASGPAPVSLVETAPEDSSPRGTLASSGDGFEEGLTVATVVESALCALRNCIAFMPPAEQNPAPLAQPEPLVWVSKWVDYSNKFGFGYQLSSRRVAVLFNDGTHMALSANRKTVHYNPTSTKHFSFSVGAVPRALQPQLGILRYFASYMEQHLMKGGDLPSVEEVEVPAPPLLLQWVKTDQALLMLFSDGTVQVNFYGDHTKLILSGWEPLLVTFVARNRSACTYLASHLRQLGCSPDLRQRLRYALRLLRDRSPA
Chain of PAK6, construct: aa382-end (Q9NQU5 382-681, looked up): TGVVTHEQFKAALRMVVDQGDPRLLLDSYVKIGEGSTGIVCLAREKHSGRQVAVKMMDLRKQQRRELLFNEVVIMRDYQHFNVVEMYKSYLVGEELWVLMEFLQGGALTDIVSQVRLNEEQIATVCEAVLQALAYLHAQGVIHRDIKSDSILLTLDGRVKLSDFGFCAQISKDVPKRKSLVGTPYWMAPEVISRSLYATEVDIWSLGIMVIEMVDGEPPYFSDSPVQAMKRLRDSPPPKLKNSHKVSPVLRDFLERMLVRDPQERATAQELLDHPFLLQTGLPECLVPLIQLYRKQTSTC
Chain of RIPK4, construct: aa1-300 (P57078 1-300, looked up): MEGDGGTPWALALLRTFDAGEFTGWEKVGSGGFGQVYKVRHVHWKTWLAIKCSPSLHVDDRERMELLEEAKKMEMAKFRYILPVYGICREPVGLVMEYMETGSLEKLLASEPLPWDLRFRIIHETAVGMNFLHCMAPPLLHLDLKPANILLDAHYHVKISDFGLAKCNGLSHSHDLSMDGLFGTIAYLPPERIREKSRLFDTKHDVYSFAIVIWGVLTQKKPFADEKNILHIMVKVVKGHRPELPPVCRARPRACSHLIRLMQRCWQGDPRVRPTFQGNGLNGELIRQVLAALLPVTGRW

PAK6, construct: aa382-end (from UniProt Q9NQU5)
relative phosphorylation
Conditions	at +1	at +2	at +3	at +4	at -1	at -2	at -3	at -4	at -5
A fixed	0.845	5.4	1.16	1.06	0.921	0.523	0.766	1.19	1.21
D fixed	0.225	0.407	0.707	0.827	0.361	0.117	0.216	0.554	0.759
E fixed	0.233	0.264	1.08	0.69	0.256	0.109	0.18	0.635	0.568
F fixed	1.37	0.835	0.986	0.672	1.12	0.626	0.638	0.778	0.855
G fixed	0.376	0.695	1.18	1.29	0.619	0.31	0.553	1.24	1.19
H fixed	0.97	0.78	1.26	1.02	1.19	1.1	0.753	0.941	0.884
I fixed	1.56	0.752	0.887	0.623	1.14	0.767	1.11	1.33	1.41
K fixed	0.887	0.594	0.818	1.31	1.76	0.97	4.26	1.63	1.59
L fixed	1.63	0.798	1.11	0.609	1.29	0.662	0.802	0.903	1.15
M fixed	1.44	0.706	1.05	0.786	1.09	0.461	0.655	0.943	0.875
N fixed	0.49	0.704	0.72	1.03	0.917	0.276	0.479	0.792	0.873
P fixed	0.313	0.643	1.3	1.96	0.304	0.501	0.561	0.968	0.892
Q fixed	0.693	0.526	0.909	1.15	0.78	0.456	0.674	0.81	0.784
R fixed	1.07	0.67	0.974	1.57	2.53	8.47	3.53	1.58	1.53
V fixed	1.61	1	0.897	0.753	0.627	0.5	0.742	1.19	1.02
W fixed	1.86	0.891	0.905	0.853	0.9	0.409	0.56	0.762	0.691
Y fixed	1.42	1.33	1.07	0.807	1.2	0.737	0.525	0.755	0.731
pThr fixed	0.461	0.494	0.647	0.905	0.272	0.192	0.315	0.558	0.665
pTyr fixed	0.684	0.465	0.993	0.687	0.358	0.219	0.379	0.61	0.496

PLK3, construct: Full length (from UniProt Q9H4B4)
relative phosphorylation
Conditions	at +1	at +2	at +3	at +4	at -1	at -2	at -3	at -4	at -5
A fixed	0.585	0.878	0.681	0.695	0.828	0.711	0.85	0.948	1.07
D fixed	0.463	1.91	1.91	1.6	1.79	3.16	1.45	1.38	1.13
E fixed	0.565	1.84	2.75	1.82	1.45	1.99	3.4	1.38	1.09
F fixed	3.8	1.14	0.839	1.09	0.798	0.831	1.1	0.963	1.08
G fixed	0.491	0.475	0.766	0.819	0.519	0.688	0.865	1.05	1.16
H fixed	0.771	1.02	1.06	0.913	1.1	0.865	1.11	0.945	1.09
I fixed	0.989	1.01	0.724	0.928	0.886	0.364	0.515	0.905	0.795
K fixed	0.517	0.343	0.519	0.61	0.76	0.418	0.535	0.932	1.2
L fixed	1.06	0.92	0.831	1.21	0.966	0.654	1.08	1.1	0.85
M fixed	1.75	1.13	0.767	1.09	1.02	0.773	1.11	0.878	0.848
N fixed	0.526	0.973	1.16	0.935	1.3	2.15	0.842	1.02	1.11
P fixed	0.196	0.444	0.598	1.03	0.965	0.517	0.585	0.844	1.04
Q fixed	0.93	0.714	0.876	0.881	0.929	1.06	0.778	0.831	0.757
R fixed	0.87	0.56	0.642	0.706	1.06	0.592	0.597	0.906	1.13
V fixed	0.814	0.806	0.706	0.656	0.928	0.437	0.476	0.834	0.769
W fixed	1.04	1.51	1.1	1.12	0.566	0.654	0.934	1.19	0.964
Y fixed	1.62	1.34	1.07	0.888	1.12	1.13	0.768	0.89	0.931
pThr fixed	1.18	1.97	1.44	2.41	0.624	0.625	0.835	1.08	0.914
pTyr fixed	1.06	6.48	2.1	2.03	3.06	0.735	1.01	1.17	1.11

RIPK4, construct: aa1-300 (from UniProt P57078)
relative phosphorylation
Conditions	at +1	at +2	at +3	at +4	at -1	at -2	at -3	at -4	at -5
A fixed	0.786	0.77	0.723	0.883	0.722	0.944	1.01	0.988	1.04
D fixed	0.444	0.547	0.572	0.75	1.76	1.53	1.02	1.45	1.43
E fixed	0.458	0.509	0.485	0.618	0.809	1.36	0.853	0.96	0.926
F fixed	1.86	1.04	1.37	1.16	0.6	0.863	0.994	0.822	1.04
G fixed	1.04	0.738	0.909	0.918	0.585	1.33	0.969	1.07	0.944
H fixed	0.776	1.18	0.859	1.07	1.48	1.37	1.14	1.04	1.07
I fixed	1.77	0.843	1.78	1.05	0.841	0.635	0.848	0.861	0.876
K fixed	0.691	1.66	0.792	1.25	1.63	0.64	0.919	0.9	1.09
L fixed	1.25	0.978	1.5	1.01	0.858	0.628	0.941	0.819	0.926
M fixed	1.71	1.11	1.04	0.831	0.815	0.789	0.996	0.91	0.909
N fixed	0.665	0.943	0.725	0.726	1.52	1.24	0.837	1.26	0.941
P fixed	0.376	0.62	0.706	1.32	0.461	0.502	1.11	0.844	0.922
Q fixed	1.19	0.924	0.779	0.802	1.02	0.898	0.976	0.888	0.856
R fixed	1.11	2.28	0.932	1.29	1.33	0.986	1.43	0.936	1.03
V fixed	1.26	0.815	1.09	0.798	1.01	0.618	0.723	0.874	0.866
W fixed	0.781	0.988	1.45	1.41	0.59	1.06	1.24	1.39	1.24
Y fixed	0.836	1.07	1.3	1.13	0.963	1.6	0.998	0.977	0.898
pThr fixed	0.839	0.707	0.778	0.887	1.03	1.04	1.07	1.17	1.23
pTyr fixed	0.524	0.726	0.725	0.802	0.897	0.817	0.967	0.967	1.09
